Test results from patent publication US20050106100.

Experiments:
[1] = molecular target: T1, Ac-POG˜LLA-Ahxh-Hynic
T1 chain: PXGLLA

[2] = molecular target: T2, Ac-Inp-Cit-G˜Hphe-LA-Ahxh-Hynic (not fully specified)
T2 chain: XXGXLA

[3] = molecular target: T3, Ac-PLG˜LY-Ahxh-Ac[C14] (not fully specified)
T3 chain: PLGLY

[4] = molecular target: T4, Ac-POG˜Hphe-LA-Ahxh-Hynic
T4 chain: PXGXLA

[5] = molecular target: T5, Ac-PL-DAla˜LL-Ahxh-Hynic (not fully specified)
T5 chain: PLALL

[6] = molecular target: T6, Ac-PLG˜Hphe-OLEE-Ahx-Hynic
T6 chain: PLGXXLEE

[7] = molecular target: T7, Piv-PLG˜LYT-Ahxh-Hynic
T7 chain: PLGLYT

[8] = molecular target: T8, Ac-PLG˜L-Pya-L-Ahxh-Ac[C14] (not fully specified)
T8 chain: PLGLXL

[9] = molecular target: T9, Ac-P-Cit-G˜Nle-LA-Ahxh-Hynic (not fully specified)
T9 chain: PXGXLA

[10] = molecular target: T10, Ac-PLG˜L-Cha-Ahxh-Hynic
T10 chain: PLGLX

[11] = molecular target: T11, Ac-Oic-LG˜LL-Ahxh-Ac[C14] (not fully specified)
T11 chain: XLGLL

[12] = molecular target: T12, Ac-P-Cit-G-Hphe-LA-Hynic
T12 chain: PXGXLA

[13] = molecular target: T13, Ac-PLG˜LWA-Ahxh-Ac[C14] (not fully specified)
T13 chain: PLGLWA

[14] = molecular target: T14, Ac-PRQ˜ITA-Ahxh-Hynic
T14 chain: PRQITA

[15] = molecular target: T15, Ac-PLG-Hphe-OL-Ahxh-Ac[C14]
T15 chain: PLGXXL

[16] = molecular target: T16, Ac-P-Cit-G˜Hphe-OL-Ahxh-Ac[C14] (not fully specified)
T16 chain: PXGXXL

[17] = molecular target: T17, Ac-PLG˜LL-Ambh-Hynic
T17 chain: PLGLL

[18] = molecular target: T18, Ac-P-Cit-G˜Hphe-LA-Ahxh-Ac[C14] (not fully specified)
T18 chain: PXGXLA

[19] = molecular target: T19, Ac-POG˜Hphe-LTR-Ahxh-Hynic
T19 chain: PXGXLTR

[20] = molecular target: T20, Ac-PLG˜Hphe-RLA-Ambh-Hynic
T20 chain: PLGXRLA

[21] = molecular target: T21, Ac-P-Cit-G˜S(OBn)-LA-Ahxh-Hynic (not fully specified)
T21 chain: PXGSLA

[22] = molecular target: T22, Ac-PLG˜S(OBn)-LL-Ahxh-Ac[C14] (not fully specified)
T22 chain: PLGSLL

[23] = molecular target: T23, Ac-P-Cit-G˜Igl-LA-Ahxh-Hynic (not fully specified)
T23 chain: PXGXLA

[24] = molecular target: T24, Ac-PLG˜Cit-LA-Ahxh-Ac[C14] (not fully specified)
T24 chain: PLGXLA

[25] = molecular target: T25, Ac-P-Cit-G˜Hphe-Cha-A-Ahxh-Ac[C14] (not fully specified)
T25 chain: PXGXXA

[26] = molecular target: T26, Ac-PLG˜Hphe-Cit-L-Ahxh-Hynic (not fully specified)
T26 chain: PLGXXL

[27] = molecular target: T27, Ac-P-Cit-G˜Tle-LA-Ahxh-Hynic (not fully specified)
T27 chain: PXGXLA

[28] = molecular target: T28, Ac-PRQ˜IT-Ahxh-Hynic
T28 chain: PRQIT

[29] = molecular target: T29, Ac-DAla-PRG˜Ile-LA-Ahxh-Hynic (not fully specified)
T29 chain: APRGILA

[30] = molecular target: T30, Ac-PLG˜LL-Ahxh-Ac[C14] (not fully specified)
T30 chain: PLGLL

[31] = molecular target: T31, Ac-P-NLys-R˜LTA-Ahxh-Hynic (not fully specified)
T31 chain: PXRLTA

[32] = molecular target: T32, Ac-NLys-PLG˜Hphe-RLA-Ahxh-Hynic (not fully specified)
T32 chain: XPLGXRLA

[33] = molecular target: T33, Ac-P-Cit-Cit-LTA-Ahxh-Hynic
T33 chain: PXXLTA

[34] = molecular target: T34, NLys-NLys-PLG˜Hphe-YL-Ahxh-Hynic
T34 chain: XXPLGXYL

[35] = molecular target: T35, Ac-Hpro-Cit-G˜Hphe-TA-Ahxh-Hynic (not fully specified)
T35 chain: XXGXTA

[36] = molecular target: T36, H-γ-DGlu-PLG-LYT-Ahxh-Hynic (not fully specified)
T36 chain: EPLGLYT

[37] = molecular target: T37, Ac-PLG˜S(OBn)-LL-Ahxh-Hynic
T37 chain: PLGSLL

[38] = molecular target: T38, Ac-PLG˜LHL-Ahxh-Hynic
T38 chain: PLGLHL

[39] = molecular target: T39, Ac-P-Cha-G˜LL-Ahxh-Ac[C14] (not fully specified)
T39 chain: PXGLL

[40] = molecular target: T40, Ac-VRW˜LLA-Ahxh-Hynic
T40 chain: VRWLLA

[41] = molecular target: T41, Ac-PL-NLys˜Hphe-L-Ahxh-Ac[C14] (not fully specified)
T41 chain: PLXXL

[42] = molecular target: T42, Ac-PL-NLys˜Hphe-RL-Ahxh-Ac[C14] (not fully specified)
T42 chain: PLXXRL

[43] = molecular target: T43, Ac-PLG˜LL-Ahxh-Hynic
T43 chain: PLGLL

[44] = molecular target: T44, Ac-P-Cit-G˜Hphe-L-Ahxh-Hynic (not fully specified)
T44 chain: PXGXL

[45] = molecular target: T45, Ac-PLG˜Hphe-YL-Ambh-Hynic
T45 chain: PLGXYL

[46] = molecular target: T46, Ac-PLG˜LOL-Ahxh-Hynic (not fully specified)
T46 chain: PLGLXL

[47] = molecular target: T47, Ac-PLG˜LLA-Ahxh-Hynic (not fully specified)
T47 chain: PLGLLA

[48] = molecular target: T48, Ac-P-Cha-G˜Hphe-Cit-L-Ahxh-Ac[C14] (not fully specified)
T48 chain: PXGXXL

[49] = molecular target: T49, Hynic-ff-Ahx-PLG˜Hphe-OLEE-OH
T49 chain: FFXPLGXXLEE

[50] = molecular target: T50, Ac-P-O(Me)2-G˜Hphe-L-Nle-Ahxh-Hynic (not fully specified)
T50 chain: PXGXLX

[51] = molecular target: T51, Ac-PHG˜Hphe-L-Ahxh-Hynic (not fully specified)
T51 chain: PHGXL

B1: human MMP-9 (protein)
chain: MRTPRCGVPDLGRFQTFEGDLKWHHHNITYWIQNYSEDLPRAVIDDAFARAFALWSAVTPLTFTRVYSRDADIVIQFGVAEHGDGYPFDGKDGLLAHAFPPGPGIQGDAHFDDDELWSLGKGVVVPTRFGNADGAACHFPFIFEGRSYSACTTDGRSDGLPWCSTTANYDTDDRFGFCPSERLYTQDGNADGKPCQFPFIFQGQSYSACTTDGRSDGYRWCATTANYDRDKLFGFCPTRADSTVMGGNSAGELCVFPFTFLGKEYSTCTSEGRGDGRLWCATTSNFDSDKKWGFCPDQGYSLFLVAAHEFGHALGLDHSSVPEALMYPMYRFTEGPPLHKDDVNGIRHLYGPRPEPEPRPPTTTTPQPTAPPTVCPTGPPTVHPSERPTAGPTGPPSAGPTGPPTAGPSTATTVPLSPVDDACNVNIFDAIAEIGNQLYLFKDGKYWRFSEGRGSRPQGPFLIADKWPALPRKLDSVFEERLSKKLFFFSGRQVWVYTGASVLGPRRLDKLGLGADVAQVTGALRSGRGKMLLFSGRRLWRFDVKAQMVDPRSASEVDRMFPGVPLDTHDVFQYREKAYFCQDRFYWRVSSRSELNQVDQVGYVTYDILQCPED
B1 was tested, and the Kcat/Km [1] was 187000 M⁻¹ s⁻¹, the Kcat/Km [2] was 1650 M⁻¹ s⁻¹ and the Kcat/Km [3] was 336000 M⁻¹ s⁻¹. For the same protein, the Kcat/Km [4] was > 500000 M⁻¹ s⁻¹, the Kcat/Km [5] was 0 M⁻¹ s⁻¹ and the Kcat/Km [6] was 1990 M⁻¹ s⁻¹. For the same protein, the Kcat/Km [7] was 281000 M⁻¹ s⁻¹, the Kcat/Km [8] was 162000 M⁻¹ s⁻¹ and the Kcat/Km [9] was 116000 M⁻¹ s⁻¹. For the same protein, the Kcat/Km [10] was 147000 M⁻¹ s⁻¹, the Kcat/Km [11] was 0 M⁻¹ s⁻¹ and the Kcat/Km [12] was > 250000 M⁻¹ s⁻¹. For the same protein, the Kcat/Km [13] was > 750000 M⁻¹ s⁻¹, the Kcat/Km [14] was 3520 M⁻¹ s⁻¹ and the Kcat/Km [15] was 77500 M⁻¹ s⁻¹. For the same protein, the Kcat/Km [16] was 28600 M⁻¹ s⁻¹, the Kcat/Km [17] was 36300 M⁻¹ s⁻¹ and the Kcat/Km [18] was 652000 M⁻¹ s⁻¹. The Kcat/Km [19] was 105000 M⁻¹ s⁻¹, the Kcat/Km [20] was 4550 M⁻¹ s⁻¹ and the Kcat/Km [21] was > 250000 M⁻¹ s⁻¹. The Kcat/Km [22] was > 500000 M⁻¹ s⁻¹, the Kcat/Km [23] was 0 M⁻¹ s⁻¹ and the Kcat/Km [24] was 34000 M⁻¹ s⁻¹. For the same protein, the Kcat/Km [25] was > 500000 M⁻¹ s⁻¹, the Kcat/Km [26] was 171000 M⁻¹ s⁻¹ and the Kcat/Km [27] was 0 M⁻¹ s⁻¹. The Kcat/Km [28] was 1700 M⁻¹ s⁻¹, the Kcat/Km [29] was 61700 M⁻¹ s⁻¹ and the Kcat/Km [30] was 134000 M⁻¹ s⁻¹. For the same protein, the Kcat/Km [31] was 0 M⁻¹ s⁻¹, the Kcat/Km [32] was 373000 M⁻¹ s⁻¹ and the Kcat/Km [33] was 29300 M⁻¹ s⁻¹. For the same protein, the Kcat/Km [34] was 33800 M⁻¹ s⁻¹, the Kcat/Km [35] was 160000 M⁻¹ s⁻¹ and the Kcat/Km [36] was 59400 M⁻¹ s⁻¹. For the same protein, the Kcat/Km [37] was 187000 M⁻¹ s⁻¹, the Kcat/Km [38] was 156000 M⁻¹ s⁻¹ and the Kcat/Km [39] was 180000 M⁻¹ s⁻¹. For the same protein, the Kcat/Km [40] was 72200 M⁻¹ s⁻¹, the Kcat/Km [41] was 289000 M⁻¹ s⁻¹ and the Kcat/Km [42] was 114000 M⁻¹ s⁻¹. It also gave a Kcat/Km [43] of 218000 M⁻¹ s⁻¹, a Kcat/Km [44] of 33300 M⁻¹ s⁻¹ and a Kcat/Km [45] of 190000 M⁻¹ s⁻¹. The Kcat/Km [46] was 39400 M⁻¹ s⁻¹, the Kcat/Km [47] was 226000 M⁻¹ s⁻¹ and the Kcat/Km [48] was > 500000 M⁻¹ s⁻¹. The Kcat/Km [49] was 6680 M⁻¹ s⁻¹, the Kcat/Km [50] was 27000 M⁻¹ s⁻¹ and the Kcat/Km [51] was 4430 M⁻¹ s⁻¹.
